According to patent US20070026475A1:

Target: 4G10 anti-phosphotyrosine monoclonal antibody (Upstate Biotechnology)
Test: fluorescence polarization competition; competitor of the fluorescent pp60c-src phosphopeptide

- total shift in polarization: < 10 mP
Substance: unphosphorylated peptide (same sequence as the pp60c-src C-terminal phosphoregulatory peptide) (from UniProt P12931 524-536)
